Assay results: the supplement of paper PMC9112550, “Optimization of the antimicrobial peptide Bac7 by deep mutational scanning” (BMC Biology, 2022)

System: Escherichia coli TOP10
Experiment: shrunken log2 fold change of peptide-encoding DNA abundance (4.5 h post-induction vs induction); higher = less antimicrobial activity (less host growth inhibition)
Details: time post-induction: 4.5 h; library: site-saturation at positions 5, 18, 19, 20
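Note: peptides expressed intracellularly from a pBAD plasmid library in pooled LB shake-flask culture, induced with 0.3% L-arabinose, DNA abundance read by NGS, three biological replicates, DESeq2 with apeglm shrinkage.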

Row | Sequence | shrunken log2 fold change
1 | RRIRCRPPRLPRPRPRPHSKPRP | -0.438
2 | RRIRCRPPRLPRPRPRPHTQPRP | -0.55
3 | RRIRCRPPRLPRPRPRPHWAPRP | 0.244
4 | RRIRCRPPRLPRPRPRPHWEPRP | -0.132
5 | RRIRCRPPRLPRPRPRPHWTPRP | -0.226
6 | RRIRCRPPRLPRPRPRPIAIPRP | -0.443
7 | RRIRCRPPRLPRPRPRPICLPRP | -0.127
8 | RRIRCRPPRLPRPRPRPICQPRP | -0.0542
9 | RRIRCRPPRLPRPRPRPICRPRP | -0.0824
10 | RRIRCRPPRLPRPRPRPICSPRP | 0.0973
11 | RRIRCRPPRLPRPRPRPIDIPRP | 0.0768
12 | RRIRCRPPRLPRPRPRPIFAPRP | 0.373
13 | RRIRCRPPRLPRPRPRPIFFPRP | -0.0793
14 | RRIRCRPPRLPRPRPRPIFIPRP | -0.339
15 | RRIRCRPPRLPRPRPRPIFNPRP | -0.542
16 | RRIRCRPPRLPRPRPRPIHAPRP | -0.0479
17 | RRIRCRPPRLPRPRPRPIHDPRP | -0.264
18 | RRIRCRPPRLPRPRPRPIHEPRP | -0.115
19 | RRIRCRPPRLPRPRPRPIHHPRP | -0.481
20 | RRIRCRPPRLPRPRPRPIHQPRP | -0.304
21 | RRIRCRPPRLPRPRPRPIILPRP | -0.354
22 | RRIRCRPPRLPRPRPRPIIRPRP | -0.18
23 | RRIRCRPPRLPRPRPRPIMFPRP | -0.388
24 | RRIRCRPPRLPRPRPRPIMKPRP | -0.649
25 | RRIRCRPPRLPRPRPRPIMTPRP | -0.00708

Row | Sequence | shrunken log2 fold change
26 | RRIRCRPPRLPRPRPRPINWPRP | -0.407
27 | RRIRCRPPRLPRPRPRPIPPPRP | 0.265
28 | RRIRCRPPRLPRPRPRPIRKPRP | -0.126
29 | RRIRCRPPRLPRPRPRPISAPRP | -0.142
30 | RRIRCRPPRLPRPRPRPIVCPRP | -0.272
31 | RRIRCRPPRLPRPRPRPIVKPRP | 0.0118
32 | RRIRCRPPRLPRPRPRPIWIPRP | -0.291
33 | RRIRCRPPRLPRPRPRPIWPPRP | 0.415
34 | RRIRCRPPRLPRPRPRPIYFPRP | -0.131
35 | RRIRCRPPRLPRPRPRPIYGPRP | -0.203
36 | RRIRCRPPRLPRPRPRPKAGPRP | 0.251
37 | RRIRCRPPRLPRPRPRPKAPPRP | 0.337
38 | RRIRCRPPRLPRPRPRPKDIPRP | -0.0796
39 | RRIRCRPPRLPRPRPRPKEFPRP | 0.0238
40 | RRIRCRPPRLPRPRPRPKFAPRP | 0.0822
41 | RRIRCRPPRLPRPRPRPKGKPRP | 0.328
42 | RRIRCRPPRLPRPRPRPKGPPRP | 0.348
43 | RRIRCRPPRLPRPRPRPKHSPRP | -0.401
44 | RRIRCRPPRLPRPRPRPKIDPRP | -0.0573
45 | RRIRCRPPRLPRPRPRPKIEPRP | -0.0736
46 | RRIRCRPPRLPRPRPRPKKMPRP | 0.169
47 | RRIRCRPPRLPRPRPRPKKTPRP | -0.142
48 | RRIRCRPPRLPRPRPRPKLVPRP | -0.152
49 | RRIRCRPPRLPRPRPRPKMGPRP | 0.0549
50 | RRIRCRPPRLPRPRPRPKNSPRP | -0.159

Row | Sequence | shrunken log2 fold change
51 | RRIRCRPPRLPRPRPRPKPKPRP | 0.407
52 | RRIRCRPPRLPRPRPRPKQIPRP | 0.0104
53 | RRIRCRPPRLPRPRPRPKQTPRP | -0.0521
54 | RRIRCRPPRLPRPRPRPKRMPRP | 0.118
55 | RRIRCRPPRLPRPRPRPKSEPRP | -0.0877
56 | RRIRCRPPRLPRPRPRPKSGPRP | 0.017
57 | RRIRCRPPRLPRPRPRPKSLPRP | -0.191
58 | RRIRCRPPRLPRPRPRPKVLPRP | 0.0115
59 | RRIRCRPPRLPRPRPRPKWKPRP | 0.329
60 | RRIRCRPPRLPRPRPRPKWSPRP | 0.0876
61 | RRIRCRPPRLPRPRPRPLAPPRP | 0.268
62 | RRIRCRPPRLPRPRPRPLCEPRP | -0.0345
63 | RRIRCRPPRLPRPRPRPLDQPRP | 0.221
64 | RRIRCRPPRLPRPRPRPLEDPRP | 0.0306
65 | RRIRCRPPRLPRPRPRPLFHPRP | -0.429
66 | RRIRCRPPRLPRPRPRPLGQPRP | 0.16
67 | RRIRCRPPRLPRPRPRPLGTPRP | -0.583
68 | RRIRCRPPRLPRPRPRPLGWPRP | 0.506
69 | RRIRCRPPRLPRPRPRPLHLPRP | -0.302
70 | RRIRCRPPRLPRPRPRPLIDPRP | -0.301
71 | RRIRCRPPRLPRPRPRPLMRPRP | 0.715
72 | RRIRCRPPRLPRPRPRPLMWPRP | -0.185
73 | RRIRCRPPRLPRPRPRPLNAPRP | -0.255
74 | RRIRCRPPRLPRPRPRPLNQPRP | -0.317
75 | RRIRCRPPRLPRPRPRPLPIPRP | -0.0776

Row | Sequence | shrunken log2 fold change
76 | RRIRCRPPRLPRPRPRPLQLPRP | -0.546
77 | RRIRCRPPRLPRPRPRPLQTPRP | 0.443
78 | RRIRCRPPRLPRPRPRPLRDPRP | 0.948
79 | RRIRCRPPRLPRPRPRPLRVPRP | 0.0985
80 | RRIRCRPPRLPRPRPRPLSFPRP | -0.398
81 | RRIRCRPPRLPRPRPRPLVTPRP | -0.195
82 | RRIRCRPPRLPRPRPRPLWCPRP | -0.208
83 | RRIRCRPPRLPRPRPRPLWNPRP | -0.208
84 | RRIRCRPPRLPRPRPRPLYCPRP | -0.593
85 | RRIRCRPPRLPRPRPRPLYEPRP | -0.43
86 | RRIRCRPPRLPRPRPRPLYIPRP | -0.882
87 | RRIRCRPPRLPRPRPRPMAMPRP | 0.106
88 | RRIRCRPPRLPRPRPRPMCEPRP | -0.0476
89 | RRIRCRPPRLPRPRPRPMCFPRP | 0.00335
90 | RRIRCRPPRLPRPRPRPMCIPRP | -0.146
91 | RRIRCRPPRLPRPRPRPMCYPRP | -0.244
92 | RRIRCRPPRLPRPRPRPMDVPRP | -0.00136
93 | RRIRCRPPRLPRPRPRPMEDPRP | -0.0146
94 | RRIRCRPPRLPRPRPRPMEPPRP | 0.0774
95 | RRIRCRPPRLPRPRPRPMEWPRP | 0.0244
96 | RRIRCRPPRLPRPRPRPMFKPRP | -0.536
97 | RRIRCRPPRLPRPRPRPMGKPRP | 0.0173
98 | RRIRCRPPRLPRPRPRPMHLPRP | 0.0527
99 | RRIRCRPPRLPRPRPRPMIQPRP | -0.417
100 | RRIRCRPPRLPRPRPRPMITPRP | -0.0256

Row | Sequence | shrunken log2 fold change
101 | RRIRCRPPRLPRPRPRPMKEPRP | -0.18
102 | RRIRCRPPRLPRPRPRPMMDPRP | -0.117
103 | RRIRCRPPRLPRPRPRPMMEPRP | -0.105
104 | RRIRCRPPRLPRPRPRPMMNPRP | -0.278
105 | RRIRCRPPRLPRPRPRPMNCPRP | -0.0537
106 | RRIRCRPPRLPRPRPRPMPNPRP | -0.368
107 | RRIRCRPPRLPRPRPRPMPQPRP | 0.202
108 | RRIRCRPPRLPRPRPRPMSGPRP | 0.198
109 | RRIRCRPPRLPRPRPRPMTMPRP | -0.27
110 | RRIRCRPPRLPRPRPRPMVMPRP | 0.0583
111 | RRIRCRPPRLPRPRPRPMVNPRP | -0.0109
112 | RRIRCRPPRLPRPRPRPMWMPRP | 0.174
113 | RRIRCRPPRLPRPRPRPMYCPRP | -1.66
114 | RRIRCRPPRLPRPRPRPMYDPRP | -0.0891
115 | RRIRCRPPRLPRPRPRPMYKPRP | -0.471
116 | RRIRCRPPRLPRPRPRPMYMPRP | -0.143
117 | RRIRCRPPRLPRPRPRPMYYPRP | -0.472
118 | RRIRCRPPRLPRPRPRPNCKPRP | -0.138
119 | RRIRCRPPRLPRPRPRPNDEPRP | -0.0298
120 | RRIRCRPPRLPRPRPRPNDVPRP | -0.215
121 | RRIRCRPPRLPRPRPRPNFAPRP | -0.098
122 | RRIRCRPPRLPRPRPRPNFLPRP | -0.265
123 | RRIRCRPPRLPRPRPRPNGEPRP | -0.0109
124 | RRIRCRPPRLPRPRPRPNHHPRP | -0.604
125 | RRIRCRPPRLPRPRPRPNHQPRP | -0.421

Row | Sequence | shrunken log2 fold change
126 | RRIRCRPPRLPRPRPRPNICPRP | -0.488
127 | RRIRCRPPRLPRPRPRPNLRPRP | -0.315
128 | RRIRCRPPRLPRPRPRPNMDPRP | -0.431
129 | RRIRCRPPRLPRPRPRPNMRPRP | 0.357
130 | RRIRCRPPRLPRPRPRPNPMPRP | -0.246
131 | RRIRCRPPRLPRPRPRPNREPRP | -0.134
132 | RRIRCRPPRLPRPRPRPNSGPRP | -0.224
133 | RRIRCRPPRLPRPRPRPNSLPRP | -0.0801
134 | RRIRCRPPRLPRPRPRPNTEPRP | -0.161
135 | RRIRCRPPRLPRPRPRPNTGPRP | -0.657
136 | RRIRCRPPRLPRPRPRPNVYPRP | -0.53
137 | RRIRCRPPRLPRPRPRPNYQPRP | -0.212
138 | RRIRCRPPRLPRPRPRPPAAPRP | 1.78
139 | RRIRCRPPRLPRPRPRPPADPRP | 0.95
140 | RRIRCRPPRLPRPRPRPPCKPRP | -0.189
141 | RRIRCRPPRLPRPRPRPPCMPRP | -0.159
142 | RRIRCRPPRLPRPRPRPPCVPRP | 0.0597
143 | RRIRCRPPRLPRPRPRPPDKPRP | 0.0264
144 | RRIRCRPPRLPRPRPRPPDVPRP | 0.156
145 | RRIRCRPPRLPRPRPRPPGQPRP | 0.494
146 | RRIRCRPPRLPRPRPRPPHHPRP | 0.352
147 | RRIRCRPPRLPRPRPRPPHVPRP | 0.385
148 | RRIRCRPPRLPRPRPRPPIAPRP | 1.41
149 | RRIRCRPPRLPRPRPRPPIIPRP | -0.294
150 | RRIRCRPPRLPRPRPRPPILPRP | -0.501
